In paper PMC6914384:
One block for each substance: values may come before it.

Legend:
[1] = biological target: pSTAT1ΔNC (136-713), Tyr701-phosphorylated (UniProt P42224); experiment: SEC
[2] = biological target: pSTAT1ΔN (136-748), Tyr701-phosphorylated (UniProt P42224); experiment: SEC
[3] = biological target: p300 BRP module (bromodomain-RING-PHD), residues 1048-1282 (UniProt Q09472); experiment: ITC
[4] = biological target: pIRF3 (IRF3 1-427 phosphorylated in vitro by TBK1) (UniProt Q14653); experiment: SEC

Chain of p300 BRP module (bromodomain-RING-PHD), residues 1048-1282 (Q09472 1048-1282): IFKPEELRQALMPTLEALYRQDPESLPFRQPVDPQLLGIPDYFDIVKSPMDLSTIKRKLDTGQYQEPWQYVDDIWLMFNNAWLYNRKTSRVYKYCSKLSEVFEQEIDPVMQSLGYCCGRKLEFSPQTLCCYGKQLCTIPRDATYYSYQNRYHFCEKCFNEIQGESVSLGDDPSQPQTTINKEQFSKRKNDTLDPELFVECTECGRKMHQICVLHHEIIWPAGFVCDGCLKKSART

- stoichiometry N [1]: 2
Substance: pSTAT1ΔNC (136-713), Tyr701-phosphorylated (from UniProt P42224 136-713) (domain or fragment)

- stoichiometry N [2]: 2
Substance: pSTAT1ΔN (136-748), Tyr701-phosphorylated (from UniProt P42224 136-748) (domain or fragment)

- Kd [3]: 90 µM
- stoichiometry N [3]: 1.01
Substance: H4 K8acK12ac (4-24) peptide

- stoichiometry N [4]: 2
Substance: pIRF3 (IRF3 1-427 phosphorylated in vitro by TBK1) (from UniProt Q14653 1-427) (natural protein)
